The values that follow come from publication PMC4176181, “Multifaceted role of the Topo IIIα–RMI1-RMI2 complex and DNA2 in the BLM-dependent pathway of DNA break end resection”.

One series addresses T1, RMI1-RMI2 (Homo sapiens, UniProt Q9H9A7;Q96E14 1-625;1-147).
T1 sequence 1: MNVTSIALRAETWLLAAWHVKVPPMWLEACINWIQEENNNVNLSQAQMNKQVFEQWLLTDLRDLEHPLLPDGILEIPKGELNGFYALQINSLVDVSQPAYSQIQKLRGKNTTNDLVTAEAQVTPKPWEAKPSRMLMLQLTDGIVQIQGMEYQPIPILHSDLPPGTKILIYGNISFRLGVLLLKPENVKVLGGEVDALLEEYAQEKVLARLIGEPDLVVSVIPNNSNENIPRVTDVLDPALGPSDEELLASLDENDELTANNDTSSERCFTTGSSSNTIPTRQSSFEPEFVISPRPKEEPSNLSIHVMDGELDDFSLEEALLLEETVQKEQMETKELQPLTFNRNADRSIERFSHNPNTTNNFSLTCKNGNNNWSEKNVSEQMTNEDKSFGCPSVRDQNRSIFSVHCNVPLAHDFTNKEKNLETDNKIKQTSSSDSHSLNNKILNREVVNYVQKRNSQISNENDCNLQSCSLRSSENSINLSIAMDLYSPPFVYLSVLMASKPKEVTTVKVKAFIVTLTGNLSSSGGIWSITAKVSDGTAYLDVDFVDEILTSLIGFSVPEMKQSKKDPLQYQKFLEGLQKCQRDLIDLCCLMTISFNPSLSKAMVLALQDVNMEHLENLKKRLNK
T1 sequence 2: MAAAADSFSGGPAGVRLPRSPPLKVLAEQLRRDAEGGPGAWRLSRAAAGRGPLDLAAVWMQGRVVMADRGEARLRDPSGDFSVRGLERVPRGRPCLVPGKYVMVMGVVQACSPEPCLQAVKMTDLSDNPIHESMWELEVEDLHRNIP
As to the kind of experiment: EMSA; 25-100 nM protein; EMSA: 35 mM Tris-HCl pH 7.5, 1 mM DTT, 100 ng/μl BSA, 2 mM MgCl2, 100 mM NaCl, 25°C, 20 min, 5 nM DNA ends (Mg2+ and ATP omitted in Figure 3B). The note with it: protein: recombinant; copies: 1;1; label: 32P; blunt. (In general: Mobility shift assays separate free from complexed probe on a gel.)

Series [1] addresses T2, Topo IIIα (Homo sapiens, UniProt Q13472 1-1001).
T2 sequence: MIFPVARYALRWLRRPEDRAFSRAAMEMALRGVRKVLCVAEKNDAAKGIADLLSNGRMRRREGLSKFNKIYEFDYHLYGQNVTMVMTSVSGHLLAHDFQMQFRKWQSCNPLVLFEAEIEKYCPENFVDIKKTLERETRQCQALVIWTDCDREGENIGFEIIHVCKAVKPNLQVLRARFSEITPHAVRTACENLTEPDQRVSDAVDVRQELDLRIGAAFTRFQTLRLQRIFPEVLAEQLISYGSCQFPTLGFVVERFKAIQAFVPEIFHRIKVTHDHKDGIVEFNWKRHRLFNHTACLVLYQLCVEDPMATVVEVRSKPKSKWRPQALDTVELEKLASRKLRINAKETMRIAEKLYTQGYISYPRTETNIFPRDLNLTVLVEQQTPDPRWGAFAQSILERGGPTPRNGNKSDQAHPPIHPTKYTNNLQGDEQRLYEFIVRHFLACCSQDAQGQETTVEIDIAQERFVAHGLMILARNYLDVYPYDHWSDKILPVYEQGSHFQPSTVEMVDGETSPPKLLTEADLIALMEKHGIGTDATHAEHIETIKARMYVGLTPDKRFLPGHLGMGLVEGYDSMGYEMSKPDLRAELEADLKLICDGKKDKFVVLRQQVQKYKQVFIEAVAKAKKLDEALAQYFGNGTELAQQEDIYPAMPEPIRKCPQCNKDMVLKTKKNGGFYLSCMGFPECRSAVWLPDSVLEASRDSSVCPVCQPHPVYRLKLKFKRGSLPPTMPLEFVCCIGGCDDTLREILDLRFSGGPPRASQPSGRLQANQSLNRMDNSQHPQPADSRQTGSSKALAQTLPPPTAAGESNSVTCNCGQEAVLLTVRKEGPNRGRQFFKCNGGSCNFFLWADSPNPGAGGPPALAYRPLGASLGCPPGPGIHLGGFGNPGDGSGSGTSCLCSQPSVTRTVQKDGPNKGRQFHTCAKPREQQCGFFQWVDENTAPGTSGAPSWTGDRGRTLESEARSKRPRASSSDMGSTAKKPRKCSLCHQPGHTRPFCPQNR
Put plainly: EMSA; 25-100 nM protein; two discrete complexes; EMSA: 35 mM Tris-HCl pH 7.5, 1 mM DTT, 100 ng/μl BSA, 2 mM MgCl2, 100 mM NaCl, 25°C, 20 min, 5 nM DNA ends (Mg2+ and ATP omitted in Figure 3B). The note with it: protein: recombinant; label: 32P; blunt.

A further series has as its target BLM;DNA2-D277A (Homo sapiens;Homo sapiens, UniProt P54132;P51530 1-1417;1-1060, |D277A). Put plainly: EMSA; 7.5-15 nM BLM with 10 or 20 nM DNA2-D277A; binding enhanced over BLM alone; no ATP, no Mg2+; EMSA: 35 mM Tris-HCl pH 7.5, 1 mM DTT, 100 ng/μl BSA, 2 mM MgCl2, 100 mM NaCl, 25°C, 20 min, 5 nM DNA ends (Mg2+ and ATP omitted in Figure 3B). Conditions: protein: recombinant;recombinant; copies: 1;1; label: 32P; blunt.

In series [2] the target is T2, Topo IIIα. Put plainly: EMSA; 25-100 nM protein; streptavidin on one end; shifted efficiently; EMSA: 35 mM Tris-HCl pH 7.5, 1 mM DTT, 100 ng/μl BSA, 2 mM MgCl2, 100 mM NaCl, 25°C, 20 min, 5 nM DNA ends (Mg2+ and ATP omitted in Figure 3B). The note with it: protein: recombinant; label: 32P; blunt.

Sequence of BLM;DNA2-D277A (P54132 whole entry, chain 1 of 2): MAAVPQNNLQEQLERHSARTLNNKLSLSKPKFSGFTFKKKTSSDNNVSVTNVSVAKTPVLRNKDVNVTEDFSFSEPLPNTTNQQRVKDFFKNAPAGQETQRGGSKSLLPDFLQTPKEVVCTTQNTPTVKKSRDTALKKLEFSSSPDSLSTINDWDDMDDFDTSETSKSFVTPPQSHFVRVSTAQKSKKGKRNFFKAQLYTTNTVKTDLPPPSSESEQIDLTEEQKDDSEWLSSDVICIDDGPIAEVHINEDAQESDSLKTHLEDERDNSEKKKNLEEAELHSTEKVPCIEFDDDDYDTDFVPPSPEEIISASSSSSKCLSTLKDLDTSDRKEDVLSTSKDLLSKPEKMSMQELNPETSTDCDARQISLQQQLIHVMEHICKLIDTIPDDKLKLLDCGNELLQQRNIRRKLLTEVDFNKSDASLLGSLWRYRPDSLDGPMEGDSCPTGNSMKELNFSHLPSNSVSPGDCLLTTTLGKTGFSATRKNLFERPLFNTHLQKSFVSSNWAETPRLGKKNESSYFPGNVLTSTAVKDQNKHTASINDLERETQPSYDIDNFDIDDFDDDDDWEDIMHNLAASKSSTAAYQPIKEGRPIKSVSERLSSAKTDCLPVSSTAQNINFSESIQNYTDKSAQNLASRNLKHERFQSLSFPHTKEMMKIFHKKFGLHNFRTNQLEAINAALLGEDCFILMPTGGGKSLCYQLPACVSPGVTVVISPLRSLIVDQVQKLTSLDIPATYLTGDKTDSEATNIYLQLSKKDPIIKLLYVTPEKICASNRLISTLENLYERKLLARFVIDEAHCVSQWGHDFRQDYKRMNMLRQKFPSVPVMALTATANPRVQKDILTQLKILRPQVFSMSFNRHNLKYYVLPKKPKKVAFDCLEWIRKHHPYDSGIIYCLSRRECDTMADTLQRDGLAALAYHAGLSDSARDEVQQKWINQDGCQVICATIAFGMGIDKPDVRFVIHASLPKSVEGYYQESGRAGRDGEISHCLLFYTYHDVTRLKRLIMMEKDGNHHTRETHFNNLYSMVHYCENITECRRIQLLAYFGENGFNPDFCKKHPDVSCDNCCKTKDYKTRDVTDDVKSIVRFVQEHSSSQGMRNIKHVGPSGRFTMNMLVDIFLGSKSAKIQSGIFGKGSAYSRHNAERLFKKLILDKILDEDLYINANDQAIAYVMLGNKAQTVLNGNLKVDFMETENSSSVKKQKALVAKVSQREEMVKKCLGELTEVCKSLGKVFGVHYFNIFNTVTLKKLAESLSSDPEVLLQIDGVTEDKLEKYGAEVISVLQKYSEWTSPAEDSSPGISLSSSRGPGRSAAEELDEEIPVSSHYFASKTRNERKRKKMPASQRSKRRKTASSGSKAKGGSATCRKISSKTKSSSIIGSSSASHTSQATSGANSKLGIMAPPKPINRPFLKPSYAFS
Sequence of BLM;DNA2-D277A (P51530 whole entry D277A, chain 2 of 2): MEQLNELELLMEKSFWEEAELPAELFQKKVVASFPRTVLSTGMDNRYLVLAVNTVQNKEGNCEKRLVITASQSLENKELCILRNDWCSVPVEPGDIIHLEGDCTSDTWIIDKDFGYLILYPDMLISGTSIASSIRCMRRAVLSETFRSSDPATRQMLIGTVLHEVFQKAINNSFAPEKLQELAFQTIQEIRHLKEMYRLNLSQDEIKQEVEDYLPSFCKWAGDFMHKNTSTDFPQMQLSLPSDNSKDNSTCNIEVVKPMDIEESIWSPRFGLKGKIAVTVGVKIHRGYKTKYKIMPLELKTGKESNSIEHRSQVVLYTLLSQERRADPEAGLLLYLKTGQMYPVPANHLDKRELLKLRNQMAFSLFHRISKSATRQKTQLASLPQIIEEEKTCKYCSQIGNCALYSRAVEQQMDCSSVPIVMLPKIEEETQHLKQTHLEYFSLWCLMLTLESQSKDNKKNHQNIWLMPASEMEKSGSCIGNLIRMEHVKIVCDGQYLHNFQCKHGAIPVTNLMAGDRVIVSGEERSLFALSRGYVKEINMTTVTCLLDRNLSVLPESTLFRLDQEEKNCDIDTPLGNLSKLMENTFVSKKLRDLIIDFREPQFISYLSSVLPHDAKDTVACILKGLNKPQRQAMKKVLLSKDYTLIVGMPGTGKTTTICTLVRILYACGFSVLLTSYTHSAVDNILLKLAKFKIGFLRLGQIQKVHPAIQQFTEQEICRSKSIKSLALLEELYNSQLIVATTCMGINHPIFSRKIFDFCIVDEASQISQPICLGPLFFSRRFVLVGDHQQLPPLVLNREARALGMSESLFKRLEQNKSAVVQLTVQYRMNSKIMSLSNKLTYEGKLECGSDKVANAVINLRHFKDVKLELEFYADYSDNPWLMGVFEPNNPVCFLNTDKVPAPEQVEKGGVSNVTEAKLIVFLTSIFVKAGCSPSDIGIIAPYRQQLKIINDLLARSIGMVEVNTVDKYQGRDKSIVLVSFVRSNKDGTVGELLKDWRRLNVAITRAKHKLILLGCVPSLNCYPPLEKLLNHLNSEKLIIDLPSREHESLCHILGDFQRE

B1: 80-mer dsDNA (dsDNA)
DNA 1: TTGATAAGAGGTCATTTGAATTCATGGCTTAGAGCTTAATTGCTGAATCTGGTGCTGGGATCCAACATGTTTTAAATATG
DNA 2: CATATTTAAAACATGTTGGATCCCAGCACCAGATTCAGCAATTAAGCTCTAAGCCATGAATTCAAATGACCTCTTATCAA
As for B1, the binding result is recorded as “no binding” in the series with RMI1-RMI2, “binds” in the series with Topo IIIα [1] and “binds” with BLM;DNA2-D277A.

B2: 80-mer dsDNA, one end blocked by biotin-streptavidin (dsDNA)
DNA 1: TTGATAAGAGGTCATTTGAATTCATGGCTTAGAGCTTAATTGCTGAATCTGGTGCTGGGATCCAACATGTTTTAAATATG
DNA 2: CATATTTAAAACATGTTGGATCCCAGCACCAGATTCAGCAATTAAGCTCTAAGCCATGAATTCAAATGACCTCTTATCAA
modifications: 5' biotin on one strand (PSOL7475 or PSOL6214; which one not stated), streptavidin bound
Consider B2, for which the binding result in the series with Topo IIIα [2] is “binds”.
